# Experimental data taken from doi:10.1101/2022.02.08.479534, “FoxP3 can fold into two distinct dimerization states with divergent functional implications for T cell homeostasis”.
# T1: MBP-FoxP3ΔN (Mus musculus, UniProt Q99JB6 188-423)
# T1 sequence: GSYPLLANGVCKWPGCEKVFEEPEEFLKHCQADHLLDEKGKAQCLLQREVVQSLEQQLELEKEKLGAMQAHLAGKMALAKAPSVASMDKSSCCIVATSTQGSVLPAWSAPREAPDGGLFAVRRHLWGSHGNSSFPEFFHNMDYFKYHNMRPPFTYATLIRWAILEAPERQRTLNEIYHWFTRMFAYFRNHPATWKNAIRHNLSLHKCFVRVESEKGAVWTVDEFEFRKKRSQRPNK
# T2: FoxP3ΔN (Mus musculus, UniProt Q99JB6 188-423)
# T2 sequence: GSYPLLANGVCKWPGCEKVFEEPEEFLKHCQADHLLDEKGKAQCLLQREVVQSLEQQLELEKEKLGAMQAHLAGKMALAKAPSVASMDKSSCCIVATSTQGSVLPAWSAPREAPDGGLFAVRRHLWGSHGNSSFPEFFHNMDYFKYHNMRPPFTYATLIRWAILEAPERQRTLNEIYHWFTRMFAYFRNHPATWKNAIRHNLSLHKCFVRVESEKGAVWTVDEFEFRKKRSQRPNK
# T3: FoxP3ΔN;NFAT1 (394-680) (Mus musculus;Mus musculus, UniProt Q99JB6;Q60591 188-423;394-680, |)
# T3 sequence 1: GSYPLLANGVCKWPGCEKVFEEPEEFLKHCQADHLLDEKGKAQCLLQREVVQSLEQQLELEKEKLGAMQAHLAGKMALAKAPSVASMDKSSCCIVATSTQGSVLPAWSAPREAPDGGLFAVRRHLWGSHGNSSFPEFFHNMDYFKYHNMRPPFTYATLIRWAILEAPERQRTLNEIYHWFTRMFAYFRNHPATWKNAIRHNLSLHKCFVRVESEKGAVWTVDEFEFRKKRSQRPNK
# T3 sequence 2: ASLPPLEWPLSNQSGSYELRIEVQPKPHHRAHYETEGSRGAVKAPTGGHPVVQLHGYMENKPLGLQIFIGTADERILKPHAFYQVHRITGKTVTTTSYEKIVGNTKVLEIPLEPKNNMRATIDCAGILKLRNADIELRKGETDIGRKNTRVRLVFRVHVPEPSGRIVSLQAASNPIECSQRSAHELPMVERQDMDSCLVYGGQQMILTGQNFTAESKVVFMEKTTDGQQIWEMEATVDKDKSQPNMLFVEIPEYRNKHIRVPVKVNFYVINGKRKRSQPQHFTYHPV
# T4: NusA-FoxP1RBR-forkhead (Mus musculus, UniProt P58462 433-579)
# T4 sequence: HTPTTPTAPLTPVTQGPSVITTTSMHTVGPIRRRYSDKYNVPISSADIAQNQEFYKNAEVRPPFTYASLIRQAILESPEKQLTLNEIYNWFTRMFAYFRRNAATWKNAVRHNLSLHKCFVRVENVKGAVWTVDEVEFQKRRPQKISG
# T5: NusA-FoxP2RBR-forkhead (Mus musculus, UniProt P58463 447-588)
# T5 sequence: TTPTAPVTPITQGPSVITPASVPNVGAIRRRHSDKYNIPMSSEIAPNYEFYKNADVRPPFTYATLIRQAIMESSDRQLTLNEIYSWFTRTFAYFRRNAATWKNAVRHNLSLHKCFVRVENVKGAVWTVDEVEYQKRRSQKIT
# T6: NusA-FoxP4RBR-forkhead (Mus musculus, UniProt Q9DBY0 418-577)
# T6 sequence: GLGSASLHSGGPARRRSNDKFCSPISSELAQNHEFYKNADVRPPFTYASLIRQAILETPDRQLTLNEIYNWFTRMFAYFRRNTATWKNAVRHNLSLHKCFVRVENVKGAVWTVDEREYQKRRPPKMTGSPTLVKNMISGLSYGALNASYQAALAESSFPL
# Experiments:
# MBP-FoxP3ΔN [1] = biological target: T1, MBP-FoxP3ΔN; assay: MBP pull-down; EMSA: 0.2 uM DNA, 20 mM Tris pH 7.5, 150 mM NaCl, 1.5 mM MgCl2, 2 mM DTT, 30 min at 4 C; anti-HA bead DNA pull-down: 20 min at room temperature; the EMSA IR-FKHM4g length is taken as 31 bp; conditions: protein: recombinant; tags: His6-MBP; blunt
# FoxP3ΔN = biological target: T2, FoxP3ΔN; assay: EMSA; up to 0.8 uM; nearly undetectable; EMSA: 0.2 uM DNA, 20 mM Tris pH 7.5, 150 mM NaCl, 1.5 mM MgCl2, 2 mM DTT, 30 min at 4 C; anti-HA bead DNA pull-down: 20 min at room temperature; the EMSA IR-FKHM4g length is taken as 31 bp; conditions: protein: recombinant; tags: His6-NusA cleaved (HRV3C); chain copies: 2; blunt
# MBP-FoxP3ΔN [2] = biological target: T1, MBP-FoxP3ΔN; assay: MBP pull-down; strong; EMSA: 0.2 uM DNA, 20 mM Tris pH 7.5, 150 mM NaCl, 1.5 mM MgCl2, 2 mM DTT, 30 min at 4 C; anti-HA bead DNA pull-down: 20 min at room temperature; the EMSA IR-FKHM4g length is taken as 31 bp; conditions: protein: recombinant; tags: His6-MBP; blunt
# MBP-FoxP3ΔN [3] = biological target: T1, MBP-FoxP3ΔN; assay: MBP pull-down; not efficiently bound; EMSA: 0.2 uM DNA, 20 mM Tris pH 7.5, 150 mM NaCl, 1.5 mM MgCl2, 2 mM DTT, 30 min at 4 C; anti-HA bead DNA pull-down: 20 min at room temperature; the EMSA IR-FKHM4g length is taken as 31 bp; conditions: protein: recombinant; tags: His6-MBP; blunt
# FoxP3ΔN;NFAT1 (394-680) [4] = biological target: T3, FoxP3ΔN;NFAT1 (394-680); assay: restriction enzyme protection; 3.2 uM FoxP3, 0.4 uM NFAT; XhoI protected, BamHI accessible; EMSA: 0.2 uM DNA, 20 mM Tris pH 7.5, 150 mM NaCl, 1.5 mM MgCl2, 2 mM DTT, 30 min at 4 C; anti-HA bead DNA pull-down: 20 min at room temperature; the EMSA IR-FKHM4g length is taken as 31 bp; conditions: protein: recombinant;recombinant; tags: His6-NusA cleaved (HRV3C);His6-NusA cleaved; blunt
# NusA-FoxP1RBR-forkhead = biological target: T4, NusA-FoxP1RBR-forkhead; assay: EMSA; equal to IR-FKHM4g; EMSA: 0.2 uM DNA, 20 mM Tris pH 7.5, 150 mM NaCl, 1.5 mM MgCl2, 2 mM DTT, 30 min at 4 C; anti-HA bead DNA pull-down: 20 min at room temperature; the EMSA IR-FKHM4g length is taken as 31 bp; conditions: protein: recombinant; tags: His6-NusA; blunt
# NusA-FoxP2RBR-forkhead = biological target: T5, NusA-FoxP2RBR-forkhead; assay: as above; conditions: protein: recombinant; tags: His6-NusA; blunt
# NusA-FoxP4RBR-forkhead = biological target: T6, NusA-FoxP4RBR-forkhead; assay: as above; conditions: protein: recombinant; tags: His6-NusA; blunt
# FoxP3ΔN;NFAT1 (394-680) [5] = biological target: T3, FoxP3ΔN;NFAT1 (394-680); assay: restriction enzyme protection; 1.6 uM FoxP3, 0.4 uM NFAT; XhoI and BamHI protected, EcoRI accessible; EMSA: 0.2 uM DNA, 20 mM Tris pH 7.5, 150 mM NaCl, 1.5 mM MgCl2, 2 mM DTT, 30 min at 4 C; anti-HA bead DNA pull-down: 20 min at room temperature; the EMSA IR-FKHM4g length is taken as 31 bp; conditions: protein: recombinant;recombinant; tags: His6-NusA cleaved (HRV3C);His6-NusA cleaved; blunt
binder,measurement,setting,value
IR-seq3 (dsDNA) DNA 1: ATGATGCATCTCGAGATGCATCAT DNA 2: ATGATGCATCTCGAGATGCATCAT,binding result,MBP-FoxP3ΔN [1],no binding
sFKHM (22bp) (dsDNA) DNA 1: TTAGGAAAATTTGTTTACTCGA DNA 2: TCGAGTAAACAAATTTTCCTAA,binding result,FoxP3ΔN,no binding
FKHM-seq3 (dsDNA) DNA 1: ATTTGTTTACTCGAGATGCATCAT DNA 2: ATGATGCATCTCGAGTAAACAAAT,binding result,MBP-FoxP3ΔN [1],binds
FKHM-seq2 (dsDNA) DNA 1: ATTTGTTTACTCGAGACGCAAAAT DNA 2: ATTTTGCGTCTCGAGTAAACAAAT,binding result,MBP-FoxP3ΔN [1],binds
Major seq8-seq9 (dsDNA) DNA 1: GTTTGTTTCCCAGGTAAAACAACC DNA 2: GGTTGTTTTACCTGGGAAACAAAC,binding result,MBP-FoxP3ΔN [2],binds
FKHM-seq8 (dsDNA) DNA 1: TTAGGAAAATTTGTTTACTCGAGGAAACAAA DNA 2: TTTGTTTCCTCGAGTAAACAAATTTTCCTAA,binding result,MBP-FoxP3ΔN [1],binds
IR-seq8 (dsDNA) DNA 1: TTAGGAAAATTTGTTTCCTCGAGGAAACAAA DNA 2: TTTGTTTCCTCGAGGAAACAAATTTTCCTAA,binding result,MBP-FoxP3ΔN [3],no binding
IR-seq11 (dsDNA) DNA 1: TTAGGAAAATTTGTTTAATCGATTAAACAAA DNA 2: TTTGTTTAATCGATTAAACAAATTTTCCTAA,binding result,MBP-FoxP3ΔN [3],no binding
FKHM-seq9 (dsDNA) DNA 1: TTAGGAAAATTTGTTTACTCGATAAAACAAA DNA 2: TTTGTTTTATCGAGTAAACAAATTTTCCTAA,binding result,MBP-FoxP3ΔN [1],binds
FKHM-seq11 (dsDNA) DNA 1: TTAGGAAAATTTGTTTACTCGATTAAACAAA DNA 2: TTTGTTTAATCGAGTAAACAAATTTTCCTAA,binding result,MBP-FoxP3ΔN [1],binds
IR-FKHM11g (54bp) (dsDNA) DNA 1: TTAGGAAAATTTGTTTACTCGAGTGTACGGTAAACAGTGGATCCGAATTCATAT DNA 2: ATATGAATTCGGATCCACTGTTTACCGTACACTCGAGTAAACAAATTTTCCTAA,binding result,FoxP3ΔN;NFAT1 (394-680) [4],binds
Major FKHM-seq5 (dsDNA) DNA 1: AAATGTTTACTAGGAATGCAATGA DNA 2: TCATTGCATTCCTAGTAAACATTT,binding result,MBP-FoxP3ΔN [1],binds
IR-seq1 (dsDNA) DNA 1: ATTTCGCGTCTCGAGACGCGAAAT DNA 2: ATTTCGCGTCTCGAGACGCGAAAT,binding result,MBP-FoxP3ΔN [1],no binding
FKHM-seq1 (dsDNA) DNA 1: ATTTGTTTACTCGAGACGCGAAAT DNA 2: ATTTCGCGTCTCGAGTAAACAAAT,binding result,MBP-FoxP3ΔN [1],binds
IR-seq5 (dsDNA) DNA 1: TTAGGAAAATTTTGCATTTCGAAATGCAAAA DNA 2: TTTTGCATTTCGAAATGCAAAATTTTCCTAA,binding result,MBP-FoxP3ΔN [3],no binding
FKHM-seq5 (dsDNA) DNA 1: TTAGGAAAATTTGTTTACTCGAAATGCAAAA DNA 2: TTTTGCATTTCGAGTAAACAAATTTTCCTAA,binding result,MBP-FoxP3ΔN [1],binds
sFKHM (31bp) (dsDNA) DNA 1: TTAGGAAAATTTGTTTACTCGACGCGGCAAA DNA 2: TTTGCCGCGTCGAGTAAACAAATTTTCCTAA,binding result,FoxP3ΔN,no binding
same,binding result,NusA-FoxP1RBR-forkhead,binds
same,binding result,NusA-FoxP2RBR-forkhead,binds
same,binding result,NusA-FoxP4RBR-forkhead,binds
IR-FKHM4g (47bp) (dsDNA) DNA 1: TTAGGAAAATTTGTTTACTCGAGTAAACAGTGGATCCGAATTCATAT DNA 2: ATATGAATTCGGATCCACTGTTTACTCGAGTAAACAAATTTTCCTAA,binding result,FoxP3ΔN;NFAT1 (394-680) [5],binds
IR-seq2 (dsDNA) DNA 1: ATTTTGCGTCTCGAGACGCAAAAT DNA 2: ATTTTGCGTCTCGAGACGCAAAAT,binding result,MBP-FoxP3ΔN [1],no binding
IR-seq9 (dsDNA) DNA 1: TTAGGAAAATTTGTTTTATCGATAAAACAAA DNA 2: TTTGTTTTATCGATAAAACAAATTTTCCTAA,binding result,MBP-FoxP3ΔN [3],no binding
